assay: yeast display, Sf9 membrane polyspecificity reagent, FACS + sequencing; frameworks hold sequencing errors
Method in brief: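 After 36–48 hours of galactose induction, yeast (Saccharomyces cerevisiae BJ5465) displaying a synthetic nanobody library were stained at 4 °C for 1 hour with 10% biotinylated, detergent-solubilized Sf9 membrane reagent. Streptavidin microbeads enriched the stained cells before FACS sorting into low and high (top ~1%) gates on anti-HA and streptavidin fluorescence. Each clone's polyreactivity label reflects its gate of origin.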

| Sequence | polyreactivity (PSR sort gate) |
| --- | --- |
| QVKLVESGGGLVQAGGSLRLSCAASGSTINLYDMGSYIQAPGKERELVADISRGGSTNYADSVKGRFTITRDNAKNTVYLQMNSLIPEDTAVYYCAAFYFTYDFWTYSFAEYDYWGQGTQVTVSS | high polyreactivity |
| QVKLVESGGGLVQAGGSLRLSCAASGSTLRYYGMGWYRQAPGKERELVAAISSGGITNYADSVKGRFTISRDNAKNTVYLQMNSLKPEDTAVYYCAAYYTYTWFGYWGQGTQVTVSS | low polyreactivity |
| QVKLVESGGGLVQAGGSLRLSCAASGSTLYQYTMGWYRQAPGKERELVAGISRRGGSTYYAYSVKGRFTISRDNAKNTVYLQMNSLKPEDTAVYYCAKRPHYIAWYGYNGDYWGQGTQVTVSS | high polyreactivity |
| QVKLVESGGGLVQAGGSLRLSCAASGSTMSVNAMGWYRQAPGKERELVAAIDFDGGDTYYADSVKGRFTISRDNAKNTVYFQMNSLKPEDTAVYYCAADIGGQYDYLADDYWGQGTQVTVSS | low polyreactivity |
| QVKLVESGGGLVQAGGSLRLSCADSGFTFSSNGMCWYRPAPGKETELVAAITRRGGSTYYADSVKGRFTISRDNAKNTVYLQMNSLKPEDTAVYYCAKQLWDPKYDYWGQGTQVTVSS | high polyreactivity |
| QVKLVESGGGLVQAGGSLRLSCDASGFIFSLYAMGWYRQEHGKERDLVAAISKRGGSTNYADSVKGRFTISRDNAKNTVYLQMNSLKTEDTAVYYCAKARPVFLYDHWGQGTQLTVSS | high polyreactivity |
| QVKLVESGGGLVQAGGSLRLTCAASGFTFTPNAMGWYRQAPGKEMELVAAITRSSGRTYYADSVKGRFTISRDNAKNTVYLQMNSLKPEDTAVYYCAARYASTPYARFGFWGQGTQVTVSS | high polyreactivity |
| QVKLVESGGGLVQAGGSLRLTCAASGRIFEDYVMGWYIKAPGKERELVAGISGSGGITYYADSVKGRFTISRDNAKNTVYLQMNSLKPEDTAVYYCATAAASHKYGYWGQGTQVTVSS | low polyreactivity |
| QVKLVESGGGLVQAGGSLSLSCAASGSTIGGYAMGWYRQAPGKERELVAAIRRSGDSTYYADSVKGRFTISRDNAKNTVYLKMNRLKPEDTAVYYCAASYLHYRYRGRDYWGQGTQVTVSS | low polyreactivity |
| QVKLVESGGGLVQEGGSLRLSCAASGRIFGNYAMGWYRQAPGKERELVAAIDLSGDSTYYADSVKGRFTISRDNAKNTVYLQMNSLKPEDTAVYYCAATDWFSEYFWGQGTQVTVSS | low polyreactivity |
| QVKLVESGRGLVHAGGSLRLSSAASANTFPPNARGCYIPAPGKERELVSAISRSGVSTYYADSVKGRFTISRDNANNTVYLQMNSLKPEDTAVYYCAAPLIYTPLKYHYWGQGTQVTVSS | low polyreactivity |
| QVKLVESGRGLVQAGGSLRLSCAASGITFRSYAMGWYINATGKERELVATLSSSGGNTNYADSVKGRFTISRDNAKNTVYLQMNSLKPEDTAVYYCAAELWRYYYVVPGRYDDWGQGTQVTVSS | high polyreactivity |
| QVKLVETGGGLVQAGGSLRLSCAASGSTFGLYAMGWYRQAPGKERELVAAITWRGGRTYYADSVKGRFTISRDNAKNTVDLQMNSLKPEDTAVNFCAKGYDYYVRRYYYWGQGTQVTVSS | high polyreactivity |
| QVKRVESGGGLVHAGGSLRLSCPASGRTVAKYAMGGYRQEPGKARELVAAITSSGGITYYAESVQGRYTISRDNAKNIVYLQMNSLKREDTAFYYCAVKTFQVGTFRRYYYWGQGTQVTVSS | high polyreactivity |
| QVKRVESGGVLVQAGGSLRLSCAASGFIFLLNDMGWYRQAHGKERDLVAAISRGGGSTYYADSVKGRFTISRDNAKNTVYLQMNSLKPEDTAVYYCAAKPGKTPLTGHRGPYDTGYGYCGQGTQVTVSS | low polyreactivity |
| QVLIEDSGGGLVQAGGSLRLSCAASGSIFYFYAMGWYRQAPGKERELVAAISYSVGSTYYADSVKGRFTISRVNAKNTVYLQMNSLKPEDTAVDYCAADYYYGAWDGYGDEKYYYWGQGTQVTVSS | low polyreactivity |
| QVLLQESGGGLVQAGGSLRLGCAASGTISPAYYMGRYHHAPGKEREFVAAITYGTNTYYADSVKGRFTISRDNAKNTVNLQMNSLKPADTAVYYCSATAGYNGAHDYWGQGTQVTVSS | low polyreactivity |
| QVLLQESGGGLVQAGGSLRLSCAASGSIFLFYTMGWYRQAPVKEREFVAGITLGTTTYNADSVKGRFTISRDNVKNTLYLQMNSLKPEDTAVYYCAVAVGHYTEFWYWGQGTQVTMSS | high polyreactivity |
| QVLLQESGGGLVQAVGSLRLGCAASGTISPAYDIGRNHLAPGREREFVAAMTYGTNSYYSDSVKGRFTMSRDNAKNTVFLKMTSLKTEDTAVFYFSATGGYNCAHDYWGQGTQVTVSS | low polyreactivity |
| QVLLVESGGGLVQAAGSLRLSCAASGSISIGYTMGWYIQAPGKERELVATISWSGGNTYYADSVKWRFTISRDNAKNTVYLQMNRLKPEDTAVYYCAAKSSTRGDYWGQGTQVTVSS | low polyreactivity |
| QVLLVESGGGLVQAGGSHRLSCAASGFIFWDYAKGGYRQAPGKERELVAAITSGGGSTYYADSVKGRFTISRDNAKNTVYLQMNSLKPEDTAVYYCNAVSWEGYDFDYWGQGTQVTVSS | high polyreactivity |
| QVLLVESGGGLVQAGGSLRLSCAASGRIFGYNTMGWYRQAPGKERELVASISYSGGGTYYADSVKGRFTISRDNAKNTVYLQMNSLKPEDTAVYYCNALSYGYDDAYGYWGQGTQVTVSS | low polyreactivity |

| Sequence | polyreactivity (PSR sort gate) |
| --- | --- |
| QVLLVESGGGLVQAGGSLRLSCAASGYIIDVNAMGWYRQAPGKERELVASISSGTSTYYADSVKGRFTISRDNAKNTVYLQMNSLKPEDTAVYYCNAGVEFAASLYYSDNYDYWGQGTQVTVSS | low polyreactivity |
| QVLLVESGGGLVQAGGSLRLSCGASGITFAEYAMGWYRKAPGKEREFVAAISRRGGSTYYADSVKGRFTISRDNAKNTVYIQMNTLKPEDTAVYYCNRRYDTFRFEHDYDYWGQGTQVTVSS | low polyreactivity |
| QVLLVETGGGLVQAGGSLRLSCAASGLIFYDNMGWYRQAPGKERELVAAISSSGGSTSYADSVKGRFTISRDNAKNTVYLQMNSLKPEDTAVYYCAADSYPAYLGFVGFDYWGQGTQVTVSS | low polyreactivity |
| QVNLVESGGGLVQAGGSLRLSCAASGLIFFYAMGWYRQAPGKERELVAGISSGGNTNYGDSVKGRFTISRDNAKNTVYLQMNSLKPEDTAVYYCNARGFTGDHQWYLWARPLYDYWGQGTQVTVSS | high polyreactivity |
| QVNLVESGGGLVQAGGSLRLSCAASGRTFRFYVMGWYRQAPGKERELVAVIRYRGGSTYYADSVKGRFTISRDNAKNTVYLHMNSLKPEDTAVYYCNADFLLAGNEYDFWGQGTQVTVSS | high polyreactivity |
| QVPLEESGGGLVQAGGSLRLSCAASGFIIGLNAMGWYRQAPGKERELVAVITFSGGSTYYADSVKGRFTISRDNAKNTVFFQMNSLKPEDTAVYYCAARYYWYSVGYGYWGQGTQVTVSS | high polyreactivity |
| QVPLEESGGGLVQAGGSLRLSCAASGSIFMTYSMGWYRKAPGNERELVAAISWRGGSTYYADSVKGRFTISRDNAKNTVYLQMNSMKPVDTAVYYCAADYYRYGYQGSTTEDDYWGQGTLVTVSS | low polyreactivity |
| QVPLEESRGGLVQAGGSLRLSCAASGTIFVAYDMGWYRQAPGKERELVAAIDSVGRTNYADSVKGRFTISRDNAKNTVYLQMNSLKPEDTAVYYCNADQYYSFYDPDDYWGQGTQVTVSS | low polyreactivity |
| QVPLVESAGGLVQAGGSLRLSCAASGSTFYPYAMGWYRQAPGKERELVAAISSGGSTSYADSVKGRFTISRDNAKNTVYLQMNSLKPEDTEVYYCHASSPGAVPVYDYDYWGQGTQVTVSS | low polyreactivity |
| QVPLVESGGGLVQAGGSLRISCAACGIIFFPYAMGWYRQAPGKEREFVAAITSRGGSTYYADSVKGRFTISRDNAKNTVYLQMNSLKPEDTAVYFCAADHLGRARGPWRYNYWGQGTQVTVSS | low polyreactivity |
| QVPLVESGGGLVQAGGSLRLMCAASGRIFALYAMGWYRQAPGKERELVAAISWSAGRTYYADSVKGRFTISRDNAKNTVYLQMNSLKPEDTAVYYCAADTGRQYDYWGQGTQVTVSS | high polyreactivity |
| QVPLVESGGGLVQAGGSLRLSCAASGRISGYYDMGWYRQAPGKERELVATITSDGGTNYADSVKGRFTISRDNAKNTVYLQMNSLKPEDTAVYYCAAYGWYTKWHFAFGYWGQGTQVTVSS | low polyreactivity |
| QVPLVESGGGLVQAGGSLRLSCAASGSIFYTNAMGWSIPAPGKERELVARLSSSSGRTYYADSVKGRFPISRDNAKNTVYLKMKSLIPDYTAVYYCAARYLLRRHTNMDYWGHGTQVTVSS | high polyreactivity |
| QVPLVESGGGLVQAGGSLRLSCAASGSTLYGYAMGWSSQAPGKERELVAAISYSGGRTFYADSVKGRFTISRDNAKNTVYLQMNSLKPADSAVYYCAAEYTVYVTDWYDYYDWGQGTQVTVAS | low polyreactivity |
| QVPLVESGGGLVQAGGSLRLSCAPSGSTYYFYTMGWYIQAPGKERELVAAIRDSGSSTYYADSVKGRFTISRDNAKNTVYLQMNSLKPEDTAVYYCATGVDTYSLTVEHDSWGQGTQVTVSS | low polyreactivity |
| QVPLVESGGGLVQGGGSLRLSCAASGSIFRGNAMGWYRQAPGKERELVAAISKSGGSTYYADSVKGRFTISRDNAKNTVYLHMNSLKPEDTAVYYCAARTTYLYGRYYWGQGTQVTVSS | low polyreactivity |
| QVPLVESGGGVVQAGGSLRLSCAASGSIFNVNAMGWYRPAPGKERELVAAISSGGDTYYADSLKGRFTISRDNAKNTVYLQMNSLKPEDTAVYYCAAEIYTAYYEFDYWGQGTQVTVSS | low polyreactivity |
| QVPLVESGGVLVQAGGSLRLSFAASGRIYENAMGWYRQAPVNERELVAVISWSGGSKSYADSVKRRLTISRDNAMNTVYFQMNRLKPEDTAVYYCNAYRLLSRRYYYLGQGTQVTVSS | low polyreactivity |
| QVPLVESGVGLVQAGGSLRLSCAASGSIFSYYAMGWYRQATGKERELVAAITVRGGSTYYADSVKGRFSISRDNAKNTVYLQMYSLIPEDTAVYYCAAVWLDESFSYGPYYYWGQGTQVTVSS | low polyreactivity |
| QVPLVESGVGLVQAGGSLRLSCAASGSTISYYYMGWYRQAPGKEREFVAAIRRRGSSTYYADSVKGRFTISRDNAKNTVYLQINSLKPEDTAVYYCAKRTIAGRGRQYDYWGQGTQVSVSS | high polyreactivity |
| QVQFVESGGALVQAGGSLRLSCAASGSTFQGYAMGWYRQAPGKETELVAAISRSGGRTYYADSVTGRFTISRDNAKNTVYLQMISLKPEDTAVYYCAAEGHELTDGDSWGQGTQVTVSS | low polyreactivity |

Source: the nanobody polyreactivity screen of Harvey et al. (2022)
